For one substance, Kd results are on record in patent US20020058253A1.

The target of this experiment is QL9, nonameric variant of p2Ca (2-oxoglutarate dehydrogenase); residues not printed peptide on H-2Ld (mouse). The experiment in a line: value cited from Manning et al. 1999; single-chain.

In the case of 2C TCR, the Kd (in general, the constant that tells how readily two partners part at equilibrium) was found to be 3.2 µM.
